Consider three molecules from paper PMC7494283 (Cell, 2020).

Sequences and labels used below:
B1: S2A4 mAb (IgG1) (antibody, V domains shown)
VH: EVQLVESGGGLVQPGGSLRLSCAASGFTFSSYWMNWVRQAPGKGLEWVANIKQDGSEKYYVDSVKGRFTISRDNAKNSLFLQMNSLRAEDTAVYYCARVWWLRGSFDYWGQGTLVTVSS
VL: NFMLTQPHSVSESPGKTVTISCTGSSGSIASNYVQWYQQRPGSAPTTVIYEDNQRPSGVPDRFSGSIDSSSNSASLTISGLKTEDEADYYCQSYDSSNHVVFGGGTKLTVL
B2: S304 mAb (IgG1) (antibody, V domains shown)
VH: EVQLVESGGGLVQPGGSLRLSCAASGFTFSSYDMHWVRQTTGKGLEWVSTIGTAGDTYYPDSVKGRFTISREDAKNSLYLQMNSLRAGDTAVYYCARGDSSGYYYYFDYWGQGTLLTVSS
VL: DIEMTQSPSSLSAAVGDRVTITCRASQSIGSYLNWYQQKPGKAPKLLIYAASSLQSGVPSRFSGSGSGTDFTLTISSLQPEDFAIYYCQQSYVSPTYTFGPGTKVDIK
B3: S2H14 mAb (IgG1) (antibody, V domains shown)
VH: not shown
VL: NFMLTQPHSVSESPGKTVTISCTRSSGSIASNYVQWYQQRPGSSPTTVIYEDNQRPSGVPDRFSGSIDSSSNSASLTISGLKTEDEADYYCQSYDSSNQVFGGGTKLTVL

The target of this experiment is SARS-CoV RBD (SARS-CoV (human), isolate , UniProt P59594). Nature of the experiment: ELISA. On the technique in general: In an ELISA, binding on a coated surface is turned into a signal by an enzyme label.
In the case of B1, the binding result is “no binding”.
With B2 the entry was “binds”; with B3, “no binding”.
